Residue numbers refer to the chain shown, from its start. Read-outs that look alike come from different tables or passages of the source.

Common to all, as to test: BIAcore
Experiment [1] addresses T1, Recombinant human IL-17A (Peprotech AF-200-17) (human, UniProt Q16552 24-155).
Experiment [2] deals with T1, Recombinant human IL-17A (Peprotech …). The source holds these as a separate data set.
Experiment [3] deals with T2, recombinant IL-17RA (human, UniProt Q96F46 33-320).
In experiment [4] the target is T2, recombinant IL-17RA. The source holds these as a separate data set.

T1 sequence (Q16552 24-155): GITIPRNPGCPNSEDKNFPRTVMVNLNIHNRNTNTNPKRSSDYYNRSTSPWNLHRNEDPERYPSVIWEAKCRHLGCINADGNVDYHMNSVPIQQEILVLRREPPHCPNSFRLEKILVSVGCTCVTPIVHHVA

B1: clone 1.1 VH (VHH)
VHH: EVQLVESGGGLVQPGGSLRLSCAASGFTFSSYSMYWVRQAPGKGLEWVANIKQDGSEKYYVDSVKGRFTISRDNAKNSLFLQMNSLRAEDTAVYYCAKGEILPLHFDYWGQGTLVTVSS
As a reminder, the Kd is the free concentration of one partner at which half of the binding sites on the other are occupied at equilibrium, for simple one-to-one binding. Consider B1, for which the Kd in experiment [1] and in experiment [2] was 5 nM throughout.

B2: clone 1.6 VH (VHH)
VHH: B1 VHH with N50E, K58Q, F80Y, H105Y
For B2, the dissociation constant Kd in experiment [1] amounted to 0.63 nM.

B3: clone 1.10 VH (VHH)
VHH: VQLVESGGGLVQPGGSLRLSCAASGFTFSSYRMYWVRQAPGKGLEWVASIEQDGSEEYYVDSVKGRFTISRDNAKKSLFLQMNSLRAEDTAVYYCAKGEILPLYFDYWGQGTLVTVSS
In the case of B3, the Kd in experiment [1] is 1 nM.

B4: clone 2.1 VH (VHH)
VHH: QVQLVQSGAEVKKPGASVKVSCKASGYPFTSYDINWVRQATGQSLEWMGWMNPNSGDTVYAQKFQGRVTMTRNTSISTAYMELSSLRSEDTAVYFCARGRRDDWKNNYWGQGTLVTVSS
Take B4: the Kd in experiment [3] and in experiment [4] was 6 nM throughout.

B5: clone 2.2 VH (VHH)
VHH: B4 VHH with Q43R, N54T, S55N, D57N, G66D
Take B5: in experiment [3], the Kd came out at 1.4 nM.
